Consider three molecules from patent US20230348587A1 (Astellas, published 2023).

Experiment [1] concerns the target T1, human TSPAN8(T131N)-GFP on CHO-K1 cell (human, UniProt P19075 1-237).
T1 construct: whole, on cells; Transiently expressed; also called T131N mutant; not shown: GFP of the pCMV6-AC-GFP vector (ORIGENE, PS100010)
T1 sequence (looked up): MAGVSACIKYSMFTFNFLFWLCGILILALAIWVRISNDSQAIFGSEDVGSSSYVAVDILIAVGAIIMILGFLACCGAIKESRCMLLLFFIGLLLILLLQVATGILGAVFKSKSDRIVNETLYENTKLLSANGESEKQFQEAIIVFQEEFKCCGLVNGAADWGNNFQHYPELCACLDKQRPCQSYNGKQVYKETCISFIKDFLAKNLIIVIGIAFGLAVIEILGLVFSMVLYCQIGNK
The experiment is described as follows: flow cytometry on GFP-positive CHO-K1 cells; against wild-type human TSPAN8 expressing CHO-K1 cell. From the text: (§1) Each vector produced was introduced into the CHO-K1 cell, to produce a cell transiently expressing a human TSPAN8-GFP protein, a human mouse TSPAN8-GFP chimeric protein or a human rat TSPAN8-GFP chimeric protein. The cell produced will be referred to as a wild-type human TSPAN8 expressing CHO-K1 cell, a human mouse TSPAN8 chimeric protein expressing CHO-K1 cell or a human rat TSPAN8 chimeric protein expressing CHO-K1 cell. Further, a cell in which a pCMV6-AC-GFP vector was introduced into a CHO-K1 cell (referred to as a mock cell) was produced. The bindings of 16B11, 16B12 and TAL69 to GFP-positive cells in these cells were measured by flow cytometry. No decrease in binding of TAL69 was observed either to the human rat or human mouse TSPAN8 chimeric protein expressing CHO-K1 cell. […] Meanwhile, the binding to the human mouse TSPAN8 chimeric protein expressing CHO-K1 cell attenuated as compared with that to the wild-type human TSPAN8 expressing CHO-K1 cell (FIGS. 5-1).
(§2) Further, in order to check whether or not the amino acid at position 131 of human TSPAN8 contributed to the binding of 16B11 or 16B12, a substitute of the amino acid was produced. Specifically, a vector containing a nucleotide sequence encoding a human TSPAN8-GFP fusion protein in which threonine (T) at position 131 of the amino acid sequence of human TSPAN8 in human TSPAN8-GFP of SEQ ID NO: 2 was replaced with alanine (A) or asparagine (N) (respectively referred to as “human TSPAN8(T131A)-GFP” or “human TSPAN8(T131N)-GFP”) was produced, and such a vector was transfected into the CHO-K1 cell, to construct a cell transiently expressing human TSPAN8(T131A)-GFP or human TSPAN8(T131N)-GFP. The cell constructed will be referred to as a human TSPAN8(T131A) expressing CHO-K1 cell or a human TSPAN8(T131N) expressing CHO-K1 cell. The bindings of 16B11, 16B12 and TAL69 to GFP-positive cells in these cells were measured by flow cytometry (FIGS. 5-3). As a result, the bindings of 16B11 and 16B12 to the human TSPAN8(T131A) expressing CHO-K1 cell and the human TSPAN8(T131N) expressing CHO-K1 cell attenuated as compared with the bindings to the wild-type human TSPAN8 expressing CHO-K1 cell.

Experiment [2] concerns the target T2, human mouse TSPAN8-GFP chimeric protein on CHO-K1 cell (human; mouse, UniProt P19075 156-237).
T2 construct: range 156-237; whole protein on cells; also called Human mouse chimeric TSPAN8; human mouse TSPAN8 chimeric protein; not shown: GFP of the pCMV6-AC-GFP vector (ORIGENE, PS100010)
T2 sequence: T1 sequence (looked up) with A130D, G132T, E133D, S134E, E135A, Q137D, E140K, I142M, E147S, V155E
Described as above.
Description: as §1, §2

The target of experiment [3] is T3, human TSPAN8(T131A)-GFP on CHO-K1 cell (human, UniProt P19075 1-237).
T3 construct: whole, on cells; Transiently expressed; also called T131A mutant; not shown: GFP of the pCMV6-AC-GFP vector (ORIGENE, PS100010)
T3 sequence (looked up): T1 sequence (looked up) with N131A
The experiment is described as above.
Description: as §1, §2

Experiment [4] addresses T4, human rat TSPAN8-GFP chimeric protein on CHO-K1 cell (human; rat, UniProt P19075 156-237).
T4 construct: range 156-237; whole protein on cells; also called Human rat chimeric TSPAN8; human rat TSPAN8 chimeric protein; not shown: GFP of the pCMV6-AC-GFP vector (ORIGENE, PS100010)
T4 sequence: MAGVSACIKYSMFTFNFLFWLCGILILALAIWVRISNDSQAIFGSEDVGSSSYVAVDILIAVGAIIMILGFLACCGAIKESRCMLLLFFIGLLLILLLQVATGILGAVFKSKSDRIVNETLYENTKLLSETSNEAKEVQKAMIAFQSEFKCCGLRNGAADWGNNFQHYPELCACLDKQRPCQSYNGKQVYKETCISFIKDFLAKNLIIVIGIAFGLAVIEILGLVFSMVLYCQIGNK
The experiment is described as above.
Description: as §1, §2

The target of experiment [5] is T5, human TSPAN8-GFP protein on wild-type human TSPAN8 expressing CHO-K1 cell (human, UniProt P19075 1-237).
T5 construct: whole, on cells; Transiently expressed; GFP-positive cells were analysed; also called Human TSPAN8 (Wild type); not shown: GFP of the pCMV6-AC-GFP vector (ORIGENE, PS100010)
T5 chain: T1 sequence (looked up) with N131T
The experiment is described as follows: flow cytometry on GFP-positive CHO-K1 cells; MFI minus MFI on mock cell.

The target in experiment [6] is T1, human TSPAN8(T131N)-GFP on CHO-K1 cell. Described as above.
Experiment [7] has as its target T2, human mouse TSPAN8-GFP chimeric protein …. The description is as above.
Experiment [8] deals with T3, human TSPAN8(T131A)-GFP on CHO-K1 cell. The description is as above.
The target in experiment [9] is T4, human rat TSPAN8-GFP chimeric protein …. The experiment is described as above.
Experiment [10] concerns the target T6, human mouse TSPAN8-GFP chimeric protein on CHO-K1 cell (human; mouse) (UniProt P19075).
T6 sequence: T4 sequence with E130D, T131N, S132T, N133D, E137D, V138F, A144V, R155E
Described as above.

In experiment [11] the target is T7, human TSPAN8-Myc-DDK expressed on CHO-K1 cell (human).
T7 construct: also called TSPAN8 (Myc-DDK-tagged)-Human tetraspanin 8 (ORIGENE, RC202694)
T7 chain: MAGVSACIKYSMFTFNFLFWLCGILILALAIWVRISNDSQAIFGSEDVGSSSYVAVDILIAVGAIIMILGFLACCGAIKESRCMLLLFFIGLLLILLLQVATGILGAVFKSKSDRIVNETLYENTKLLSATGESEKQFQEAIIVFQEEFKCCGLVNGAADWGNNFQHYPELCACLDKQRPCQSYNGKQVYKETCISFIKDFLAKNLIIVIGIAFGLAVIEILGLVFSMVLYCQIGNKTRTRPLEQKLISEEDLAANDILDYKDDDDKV
Kind of experiment: binding to human TSPAN8-Myc-DDK expressed CHO-K1 cell. How it is done: For further specifying an antigen, an experiment of binding to a human TSPAN8-Myc-DDK expressed CHO-K1 cell was performed. The human TSPAN8-Myc-DDK expressed CHO-K1 cell was produced by transfecting TSPAN8 (Myc-DDK-tagged)-Human tetraspanin 8 (TSPAN8) (ORIGENE, RC202694) (SEQ ID NO: 2) into a CHO-K1 cell. As a result, it was confirmed that ten antibodies of 16B11, 16B12, 5B7, 9F6, 12C12, 13A9, 15D1, 18C10, 19E4 and 21F7 (referred to also as the “ten anti-TSPAN8 antibodies”) bound to the human TSPAN8-Myc-DDK expressed CHO-K1 cell, and recognize TSPAN8 as an antigen.

The target of experiment [12] is T6, human mouse TSPAN8-GFP chimeric protein on CHO-K1 cell (human; mouse). Kind of experiment: flow cytometry on GFP-positive CHO-K1 cells; against wild-type human TSPAN8 expressing CHO-K1 cell.

Residue numbers refer to the chain shown, from its start.

B1: Purified anti-human TSPAN8 Antibody (BioLegend, 362702 Clone TAL69) (antibody, V domains shown)
VH: EVKLLESGGGLVQPGGSMRLSCAASGFTFTDFYMNWIRQPAGKAPEWLGFIRNKASGYTTEYNPSVKGRFTISRDNTQNMLYLQMNTLRAEDTATYYCARAHSYYGYDYFDYWGQGVMVTVSS
VL: DIQMTQSPASLSASLEEIVTITCQASQDIGNWLSWYQQKPGKSPQLLIYGATSLADGVPSRFSGSRSGTQYSLKISRLQVEDIRIYYCLQAYSAPWTFGGGTKLELK
Regarding B1, the ΔMFI relative value is 108 relative (wild-type human TSPAN8 = 100) in [1], 230 relative (wild-type human TSPAN8 = 100) in [2], 139 relative (wild-type human TSPAN8 = 100) in [3] and 72 relative (wild-type human TSPAN8 = 100) in experiment [4]. In addition, the ΔMFI in experiment [5] amounted to 133000; in experiment [6], 143000; in experiment [7], 305000; in experiment [8] it was 184000; in experiment [9] it was 96200.

B2: 16B11 (antibody, V domains shown)
VH: QVQLVESGGGVVQPGRSLRLSCAASGFTFSSYGMHWVRQAPGKGLEWVAVIWYDGRNKYYADSVKGRFTISRDNSKNTLYLQMNSLRAEDTAVYYCTRDHSGSGSYYIDYWGQGTLVTVSS
VL: EIAMTQSPATLSVSPGERATLSCRASQSVSSNLAWYQQKPGQAPRLLIYGASTRATGLPARFSGSGSGTEFTLTISSLQSEDFAVYYCQQYNNFWTFGQGTKVEIKR
notes: VelocImmune hybridoma antibody: human variable regions with mouse constant regions (chimeric); Used Alexa Fluor647-labeled in some assays; also called antibody 16B11; anti-TSPAN8 antibody 16B11
On to B2, for which the results for the ΔMFI relative value (relative (wild-type human TSPAN8 = 100)) in experiment [1] and in experiment [12] were 2 and 3, respectively. Besides, the ΔMFI relative value in experiment [3] was 14 relative (wild-type human TSPAN8 = 100); in experiment [4] it was 93 relative (wild-type human TSPAN8 = 100). In addition, the ΔMFI in experiment [10] came to 5270; in experiment [5], 173000; in [6], 3460; in experiment [8], 23400; in experiment [9], 161000. For the same molecule, the binding result in experiment [11] is “binds”.

B3: 16B12 (antibody, V domains shown)
VH: B2 VH with T28I, R56S, V93M, T97A, S101Y, S105T
VL: B2 VL with A3V, S28T, L58F, F94W
notes: VelocImmune hybridoma antibody: human variable regions with mouse constant regions (chimeric); also called antibody 16B12; anti-TSPAN8 antibody 16B12
B3: the figures for the ΔMFI relative value in experiment [2] and in experiment [4] were 0 relative (wild-type human TSPAN8 = 100) and 84 relative (wild-type human TSPAN8 = 100), respectively. The ΔMFI in [7] stood at 102; in experiment [9] it was 22400.
